Assay results as given in article PMC9482650, “Quantitative fragmentomics allow affinity mapping of interactomes” (Nature Communications, 2022).

T1: SIPA1L2, Q9P2F8
T1 sequence (Q9P2F8 945-1036, limits assumed, looked up): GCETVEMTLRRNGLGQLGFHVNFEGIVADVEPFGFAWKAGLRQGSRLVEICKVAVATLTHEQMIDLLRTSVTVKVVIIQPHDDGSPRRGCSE

T2: LRRC7, Q96NW7
T2 sequence (Q96NW7 1440-1537, limits assumed, looked up): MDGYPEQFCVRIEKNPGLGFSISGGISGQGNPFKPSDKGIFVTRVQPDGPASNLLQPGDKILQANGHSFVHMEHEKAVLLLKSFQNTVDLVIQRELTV

T3: SHANK1, Q9Y566
T3 sequence (Q9Y566 658-767, limits assumed, looked up): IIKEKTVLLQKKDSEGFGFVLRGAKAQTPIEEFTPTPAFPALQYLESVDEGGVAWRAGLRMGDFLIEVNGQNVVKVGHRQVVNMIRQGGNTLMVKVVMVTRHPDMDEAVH

T4: DLG3_3, Q92796
T4 sequence (Q92796 374-475, limits assumed, looked up): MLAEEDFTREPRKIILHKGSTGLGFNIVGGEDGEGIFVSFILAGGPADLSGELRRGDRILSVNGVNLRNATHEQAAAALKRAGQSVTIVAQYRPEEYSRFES

T5: APBA3_1, O96018
T5 sequence (O96018 389-490, limits assumed, looked up): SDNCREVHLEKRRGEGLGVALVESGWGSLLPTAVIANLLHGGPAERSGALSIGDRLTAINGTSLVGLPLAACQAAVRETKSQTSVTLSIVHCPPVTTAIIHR

T6: NHERF3_4, Q5T2W1
T6 sequence (Q5T2W1 373-468, limits assumed, looked up): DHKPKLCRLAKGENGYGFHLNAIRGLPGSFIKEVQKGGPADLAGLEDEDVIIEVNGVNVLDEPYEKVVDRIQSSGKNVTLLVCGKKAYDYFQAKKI

T7: PDZD2_2, O15018
T7 sequence (O15018 329-429, limits assumed, looked up): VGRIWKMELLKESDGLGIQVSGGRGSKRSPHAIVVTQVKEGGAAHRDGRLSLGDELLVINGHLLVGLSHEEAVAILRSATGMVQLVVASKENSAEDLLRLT

T8: LNX2_3, Q8N448
T8 sequence (Q8N448 463-564, limits assumed, looked up): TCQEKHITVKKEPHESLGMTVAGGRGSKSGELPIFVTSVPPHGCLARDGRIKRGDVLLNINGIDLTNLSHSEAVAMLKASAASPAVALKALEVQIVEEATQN

T9: PDZRN3_1, Q9UPQ7
T9 sequence (Q9UPQ7 244-349, limits assumed, looked up): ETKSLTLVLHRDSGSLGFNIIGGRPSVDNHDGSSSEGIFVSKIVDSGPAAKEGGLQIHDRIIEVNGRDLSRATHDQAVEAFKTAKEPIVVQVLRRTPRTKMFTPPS


Legend:
Experiment in all cases: holdup assay
Parameters in all cases: key: below the threshold = too weak to quantify, mostly under pKd 3.1 to 4
Settings in all cases: plain residues with an end cap or a label only (N-terminal biotin on a linker: ado-ado)
FRMPD2_3, Q68DX3 = biological target: FRMPD2_3, Q68DX3
Sequence of FRMPD2_3, Q68DX3 (Q68DX3 1073-1166): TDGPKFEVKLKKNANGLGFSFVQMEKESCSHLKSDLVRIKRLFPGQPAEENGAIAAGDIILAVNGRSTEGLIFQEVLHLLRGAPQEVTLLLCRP

TJP1_3, Q07157 = biological target: TJP1_3, Q07157
Sequence of TJP1_3, Q07157 (Q07157 416-512): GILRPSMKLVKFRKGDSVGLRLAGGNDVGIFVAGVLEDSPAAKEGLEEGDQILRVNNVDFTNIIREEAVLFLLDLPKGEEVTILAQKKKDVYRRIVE

NHERF4_4, Q86UT5 = biological target: NHERF4_4, Q86UT5
Sequence of NHERF4_4, Q86UT5 (Q86UT5 464-550): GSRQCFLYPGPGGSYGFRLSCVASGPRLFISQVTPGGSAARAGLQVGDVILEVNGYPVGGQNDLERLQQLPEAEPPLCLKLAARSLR

SIPA1L2, Q9P2F8 = biological target: T1, SIPA1L2, Q9P2F8
IL16_3, Q14005 = biological target: IL16_3, Q14005
Sequence of IL16_3, Q14005 (Q14005 1107-1207): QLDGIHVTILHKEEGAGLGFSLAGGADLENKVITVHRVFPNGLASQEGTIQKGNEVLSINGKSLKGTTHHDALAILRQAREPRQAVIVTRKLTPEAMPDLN

LNX1_3, Q8TBB1 = biological target: LNX1_3, Q8TBB1
Sequence of LNX1_3, Q8TBB1 (Q8TBB1 500-596): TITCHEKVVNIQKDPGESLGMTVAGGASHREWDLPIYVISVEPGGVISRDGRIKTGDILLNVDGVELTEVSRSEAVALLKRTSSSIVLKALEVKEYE

MAGI1_2, Q96QZ7 = biological target: MAGI1_2, Q96QZ7
Sequence of MAGI1_2, Q96QZ7 (Q96QZ7 456-580): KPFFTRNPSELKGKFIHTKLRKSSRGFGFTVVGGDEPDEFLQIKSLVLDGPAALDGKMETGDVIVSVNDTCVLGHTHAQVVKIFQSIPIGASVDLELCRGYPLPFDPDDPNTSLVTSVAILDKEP

GIPC2, Q8TF65 = biological target: GIPC2, Q8TF65
Sequence of GIPC2, Q8TF65 (Q8TF65 112-203): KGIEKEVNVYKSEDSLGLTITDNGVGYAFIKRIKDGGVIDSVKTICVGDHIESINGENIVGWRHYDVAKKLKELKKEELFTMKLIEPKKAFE

Inadl_1, Q8NI35 = biological target: Inadl_1, Q8NI35
Sequence of Inadl_1, Q8NI35 (Q8NI35 113-229): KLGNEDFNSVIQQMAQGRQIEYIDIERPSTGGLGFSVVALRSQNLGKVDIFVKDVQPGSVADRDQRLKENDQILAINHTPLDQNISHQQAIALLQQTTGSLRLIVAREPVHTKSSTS

LRRC7, Q96NW7 = biological target: T2, LRRC7, Q96NW7
Inadl_5, Q8NI35 = biological target: Inadl_5, Q8NI35
Sequence of Inadl_5, Q8NI35 (Q8NI35 673-780): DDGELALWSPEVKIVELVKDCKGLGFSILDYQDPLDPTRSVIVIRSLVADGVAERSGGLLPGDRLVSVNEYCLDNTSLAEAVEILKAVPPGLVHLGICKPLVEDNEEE

SNX27, Q96L92 = biological target: SNX27, Q96L92
AHNAK1, Q09666 = biological target: AHNAK1, Q09666
Sequence of AHNAK1, Q09666 (Q09666 4-100): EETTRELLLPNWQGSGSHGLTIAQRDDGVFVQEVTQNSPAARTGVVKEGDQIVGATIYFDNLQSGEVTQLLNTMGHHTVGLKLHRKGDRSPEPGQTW

GRID2IP_2, A4D2P6 = biological target: GRID2IP_2, A4D2P6
Sequence of GRID2IP_2, A4D2P6 (A4D2P6 272-370): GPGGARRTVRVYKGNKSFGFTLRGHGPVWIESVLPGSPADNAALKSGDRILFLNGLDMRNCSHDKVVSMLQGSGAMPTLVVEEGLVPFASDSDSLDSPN

SHANK1, Q9Y566 = biological target: T3, SHANK1, Q9Y566
DLG3_3, Q92796 = biological target: T4, DLG3_3, Q92796
FRMPD4, Q14CM0 = biological target: FRMPD4, Q14CM0
Sequence of FRMPD4, Q14CM0 (Q14CM0 67-160): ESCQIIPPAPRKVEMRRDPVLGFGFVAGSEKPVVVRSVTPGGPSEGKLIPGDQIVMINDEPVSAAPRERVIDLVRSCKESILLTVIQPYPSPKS

APBA3_1, O96018 = biological target: T5, APBA3_1, O96018
GORASP1, Q9BQQ3 = biological target: GORASP1, Q9BQQ3
Sequence of GORASP1, Q9BQQ3 (Q9BQQ3 1-208): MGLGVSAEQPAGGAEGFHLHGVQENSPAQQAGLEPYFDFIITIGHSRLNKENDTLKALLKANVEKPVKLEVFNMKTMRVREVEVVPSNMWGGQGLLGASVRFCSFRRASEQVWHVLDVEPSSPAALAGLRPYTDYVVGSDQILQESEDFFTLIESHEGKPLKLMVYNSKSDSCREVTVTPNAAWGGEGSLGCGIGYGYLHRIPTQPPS

DLG4_3, P78352 = biological target: DLG4_3, P78352
Sequence of DLG4_3, P78352 (P78352 306-403): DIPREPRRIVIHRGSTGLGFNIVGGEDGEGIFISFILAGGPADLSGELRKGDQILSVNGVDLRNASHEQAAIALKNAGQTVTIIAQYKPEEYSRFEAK

NOS1, P29475 = biological target: NOS1, P29475
Sequence of NOS1, P29475 (P29475 9-101): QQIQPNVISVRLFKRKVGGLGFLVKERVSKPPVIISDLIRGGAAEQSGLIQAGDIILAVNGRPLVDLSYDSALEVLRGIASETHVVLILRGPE

Inadl_4, Q8NI35 = biological target: Inadl_4, Q8NI35
Sequence of Inadl_4, Q8NI35 (Q8NI35 547-651): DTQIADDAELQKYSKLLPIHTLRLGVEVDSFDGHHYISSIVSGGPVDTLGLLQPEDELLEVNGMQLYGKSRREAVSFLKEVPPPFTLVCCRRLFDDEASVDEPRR

NHERF3_4, Q5T2W1 = biological target: T6, NHERF3_4, Q5T2W1
LIMK2, P53671 = biological target: LIMK2, P53671
Sequence of LIMK2, P53671 (P53671 143-248): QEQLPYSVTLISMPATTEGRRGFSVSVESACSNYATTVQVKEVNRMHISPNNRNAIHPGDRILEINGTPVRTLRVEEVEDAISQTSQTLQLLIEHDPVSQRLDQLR

DLG5_1, Q8TDM6 = biological target: DLG5_1, Q8TDM6
Sequence of DLG5_1, Q8TDM6 (Q8TDM6 617-713): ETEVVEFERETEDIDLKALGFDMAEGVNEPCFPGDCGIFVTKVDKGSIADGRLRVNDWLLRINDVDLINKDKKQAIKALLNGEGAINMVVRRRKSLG

PDZD2_2, O15018 = biological target: T7, PDZD2_2, O15018
Inadl_9, Q8NI35 = biological target: Inadl_9, Q8NI35
Sequence of Inadl_9, Q8NI35 (Q8NI35 1530-1615): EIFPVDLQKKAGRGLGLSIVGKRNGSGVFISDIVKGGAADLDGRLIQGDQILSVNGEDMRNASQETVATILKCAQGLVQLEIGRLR

LNX2_3, Q8N448 = biological target: T8, LNX2_3, Q8N448
PDZRN3_1, Q9UPQ7 = biological target: T9, PDZRN3_1, Q9UPQ7

Row | Binder | pKd (FRMPD2_3, Q68DX3) | pKd (TJP1_3, Q07157) | pKd (NHERF4_4, Q86UT5) | pKd (SIPA1L2, Q9P2F8) | pKd (IL16_3, Q14005) | pKd (LNX1_3, Q8TBB1) | pKd (MAGI1_2, Q96QZ7) | pKd (GIPC2, Q8TF65) | pKd (Inadl_1, Q8NI35) | pKd (LRRC7, Q96NW7) | pKd (Inadl_5, Q8NI35) | pKd (SNX27, Q96L92) | pKd (AHNAK1, Q09666) | pKd (GRID2IP_2, A4D2P6) | pKd (SHANK1, Q9Y566) | pKd (DLG3_3, Q92796) | pKd (FRMPD4, Q14CM0) | pKd (APBA3_1, O96018) | pKd (GORASP1, Q9BQQ3) | pKd (DLG4_3, P78352) | also measured
1 | HLRQQGSVEV [EPHB6, O15197] | below the threshold | below the threshold | below the threshold | below the threshold | below the threshold | below the threshold | below the threshold | below the threshold | below the threshold | below the threshold | below the threshold | 3.76 | below the threshold | below the threshold | below the threshold | below the threshold | below the threshold | below the threshold | below the threshold | below the threshold | pKd (NOS1, P29475): 3.88; pKd (Inadl_4, Q8NI35): below the threshold; pKd (NHERF3_4, Q5T2W1): below the threshold; pKd (LIMK2, P53671): below the threshold; pKd (DLG5_1, Q8TDM6): below the threshold; pKd (PDZD2_2, O15018): below the threshold; pKd (Inadl_9, Q8NI35): 4.03; pKd (LNX2_3, Q8N448): below the threshold; pKd (PDZRN3_1, Q9UPQ7): below the threshold
2 | NLQEHSTTSV [RSBN1, Q5VWQ0] | below the threshold | below the threshold | below the threshold | below the threshold | below the threshold | below the threshold | 3.53 | below the threshold | below the threshold | below the threshold | below the threshold | 5.48 | below the threshold | 3.8 | 3.91 | 3.73 | below the threshold | below the threshold | below the threshold | 3.59 | pKd (NOS1, P29475): below the threshold; pKd (Inadl_4, Q8NI35): below the threshold; pKd (NHERF3_4, Q5T2W1): below the threshold; pKd (LIMK2, P53671): below the threshold; pKd (DLG5_1, Q8TDM6): below the threshold; pKd (PDZD2_2, O15018): 4.52; pKd (Inadl_9, Q8NI35): below the threshold; pKd (LNX2_3, Q8N448): below the threshold; pKd (PDZRN3_1, Q9UPQ7): below the threshold
3 | IPGKEFDTPL [PLCB1, Q9NQ66] | below the threshold | below the threshold | below the threshold | below the threshold | below the threshold | below the threshold | below the threshold | below the threshold | below the threshold | below the threshold | below the threshold | 5.17 | below the threshold | below the threshold | 3.96 | below the threshold | 4.95 | below the threshold | below the threshold | below the threshold | pKd (NOS1, P29475): below the threshold; pKd (Inadl_4, Q8NI35): below the threshold; pKd (NHERF3_4, Q5T2W1): 4.31; pKd (LIMK2, P53671): below the threshold; pKd (DLG5_1, Q8TDM6): below the threshold; pKd (PDZD2_2, O15018): 3.62; pKd (Inadl_9, Q8NI35): below the threshold; pKd (LNX2_3, Q8N448): below the threshold; pKd (PDZRN3_1, Q9UPQ7): 4.33
